Tests used:
[1] = system: IVGRPRHQGV (SEQ ID NO: 7)
[2] = system: APAGLIVPYN (SEQ ID NO: 5)

Sequence of MMP-9 (chain, as listed by the source): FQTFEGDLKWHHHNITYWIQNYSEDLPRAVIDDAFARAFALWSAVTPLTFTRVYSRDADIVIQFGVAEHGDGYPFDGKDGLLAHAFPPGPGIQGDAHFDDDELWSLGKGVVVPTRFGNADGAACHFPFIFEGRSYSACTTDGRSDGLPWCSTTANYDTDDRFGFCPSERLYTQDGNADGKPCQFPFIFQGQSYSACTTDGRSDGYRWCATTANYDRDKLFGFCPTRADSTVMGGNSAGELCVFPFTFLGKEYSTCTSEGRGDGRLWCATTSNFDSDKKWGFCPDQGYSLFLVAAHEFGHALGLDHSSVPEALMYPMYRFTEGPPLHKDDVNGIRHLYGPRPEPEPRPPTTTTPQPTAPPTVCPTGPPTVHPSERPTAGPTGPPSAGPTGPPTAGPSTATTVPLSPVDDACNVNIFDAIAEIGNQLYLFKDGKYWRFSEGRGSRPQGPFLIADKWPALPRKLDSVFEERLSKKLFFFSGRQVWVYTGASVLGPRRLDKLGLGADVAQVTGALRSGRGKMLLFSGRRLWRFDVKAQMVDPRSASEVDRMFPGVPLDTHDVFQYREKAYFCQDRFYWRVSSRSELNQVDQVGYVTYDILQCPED
Sequence of MMP-10 (chain, as listed by the source): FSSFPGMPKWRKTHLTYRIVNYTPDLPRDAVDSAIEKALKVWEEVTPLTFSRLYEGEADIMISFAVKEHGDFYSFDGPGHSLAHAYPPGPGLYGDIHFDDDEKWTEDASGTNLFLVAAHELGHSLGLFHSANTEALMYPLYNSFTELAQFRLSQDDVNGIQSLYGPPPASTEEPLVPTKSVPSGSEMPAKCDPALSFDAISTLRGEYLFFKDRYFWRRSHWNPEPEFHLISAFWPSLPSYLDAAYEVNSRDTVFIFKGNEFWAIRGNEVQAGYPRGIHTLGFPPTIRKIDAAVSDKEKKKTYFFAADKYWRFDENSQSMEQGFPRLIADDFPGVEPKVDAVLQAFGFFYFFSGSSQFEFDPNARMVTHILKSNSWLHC
Sequence of MMP-8 (chain, as listed by the source): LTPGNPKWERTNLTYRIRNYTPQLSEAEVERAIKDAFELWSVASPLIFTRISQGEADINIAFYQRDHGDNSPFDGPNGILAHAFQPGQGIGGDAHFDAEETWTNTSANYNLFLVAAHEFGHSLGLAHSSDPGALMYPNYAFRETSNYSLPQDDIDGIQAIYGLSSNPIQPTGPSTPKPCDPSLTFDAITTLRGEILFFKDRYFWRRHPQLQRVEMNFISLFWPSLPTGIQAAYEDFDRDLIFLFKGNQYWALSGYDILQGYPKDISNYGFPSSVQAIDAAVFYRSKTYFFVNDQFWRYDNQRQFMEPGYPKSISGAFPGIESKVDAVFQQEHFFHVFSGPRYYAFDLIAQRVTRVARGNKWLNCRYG

MMP-8
initial rate of cleavage by recombinant protease (RSKYLATA (SEQ ID NO: 8)): 0 µM/h | initial rate of cleavage by recombinant protease (PVSLRSGS (SEQ ID NO: 1)): 0.1 µM/h | initial rate of cleavage by recombinant protease [1]: 0 µM/h | initial rate of cleavage by recombinant protease (TQKPLGLS (SEQ ID NO: 4)): 0.1 µM/h | initial rate of cleavage by recombinant protease [2]: 0.5 µM/h | initial rate of cleavage by recombinant protease (RPLALWRS (SEQ ID NO: 3)): 0.2 µM/h | initial rate of cleavage by recombinant protease (PANLVAPDP (SEQ ID NO: 6)): 7.2 µM/h

MMP-9
initial rate of cleavage by recombinant protease (RSKYLATA (SEQ ID NO: 8)): 0 µM/h | initial rate of cleavage by recombinant protease (PVSLRSGS (SEQ ID NO: 1)): 6.5 µM/h | initial rate of cleavage by recombinant protease [1]: 0 µM/h | initial rate of cleavage by recombinant protease (TQKPLGLS (SEQ ID NO: 4)): 0.3 µM/h | initial rate of cleavage by recombinant protease [2]: 1.8 µM/h | initial rate of cleavage by recombinant protease (RPLALWRS (SEQ ID NO: 3)): 0.2 µM/h | initial rate of cleavage by recombinant protease (PANLVAPDP (SEQ ID NO: 6)): 8.8 µM/h

MMP-10
initial rate of cleavage by recombinant protease (RSKYLATA (SEQ ID NO: 8)): 0 µM/h | initial rate of cleavage by recombinant protease (PVSLRSGS (SEQ ID NO: 1)): 0 µM/h | initial rate of cleavage by recombinant protease [1]: 0 µM/h | initial rate of cleavage by recombinant protease (TQKPLGLS (SEQ ID NO: 4)): 0 µM/h | initial rate of cleavage by recombinant protease [2]: 1.6 µM/h | initial rate of cleavage by recombinant protease (RPLALWRS (SEQ ID NO: 3)): 0 µM/h | initial rate of cleavage by recombinant protease (PANLVAPDP (SEQ ID NO: 6)): 1.8 µM/h
